Percent co-depleted data for two substances are collected here from paper PMC3458572.

Where two headings read alike, the source gives them in different places.

Assay in all cases: immunodepletion
Assay [1] has as its target Xenopus laevis FANCI, extract-endogenous (Xenopus laevis (endogenous in egg extract)) (UniProt D2JYR7).
Assay [2] has as its target Xenopus laevis FANCD2, extract-endogenous, non-ubiquitinated (Xenopus laevis (endogenous in egg extract)).
Assay [3] shares this target. This is another data set of the same source.

Take “Xenopus laevis FANCD2, extract-endogenous, non-ubiquitinated (natural protein)”: in assay [1], the percent co-depleted is 80%. For “Xenopus laevis FANCI, extract-endogenous (from UniProt D2JYR7 1-1337) (natural protein)”, the percent co-depleted in assay [2] and in assay [3] was 80% throughout.
